# Results published in patent publication US20060241031A1 (priority 2003, published 2006).
# Like-named read-outs stand apart in the source and are kept apart here.
# Legend:
# [1] = biological target: T1, LL-37 (Homo sapiens, UniProt P49913); experiment: Indirect ELISA, SIC homologues coated, binding of LL-37; details: purified SIC homologues on microtiter plates; M1 protein negative control
# T1 construct: LL-37, […]; (Mw 4492) was synthesized by Innovagen AB; purchased Innovagen AB, Lund, Sweden; host or cells: chemical synthesis
# T1 sequence (P49913 134-170 limits assumed): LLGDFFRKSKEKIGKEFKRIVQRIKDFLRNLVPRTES
# [2] = biological target: T2, α-defensin (Homo sapiens, UniProt P59665); experiment: Antimicrobial assay, inhibition of bactericidal effect of α-defensin; assay type: cell-based
# T2 construct: α-defensin (HNP-1), […]; (Mw 3442) was purchased from Sigma; purchased Sigma
# T2 sequence (P59665 65-94 limits assumed): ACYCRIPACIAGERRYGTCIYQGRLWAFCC
# Procedure: (§1) Antimicrobial assay—AP1 bacteria were grown to mid-log phase in TH broth, washed and diluted in 10 mM Tris-HCl, pH 7.5, containing 5 mM glucose. 50 μl bacteria (2×10^6 colony forming units (cfu)/ml) were incubated together with α-defensin or LL-37 at various concentrations for 2 h at 37° C. In subsequent experiments, bacteria were incubated with α-defensin and LL-37 at a concentration of 448 nM together with different concentrations of protein SIC or M1 protein and the reactions were carried out for 2 h (α-defensin) or 1 h (LL-37). To quantitate the bactericidal activity serial dilutions of the incubation mixtures were plated on TH agar, incubated overnight at 37° C., and the number of cfus were determined.
# [3] = biological target: T1, LL-37; experiment: Antimicrobial assay, inhibition of bactericidal effect of LL-37; assay type: cell-based
# Procedure: as §1
# [4] = tested on: M1 protein; experiment: Indirect ELISA, binding of antibacterial peptides to coated M1 protein (control); parameters: species or system S. pyogenes; details: M1 protein applied to plastic wells as control
# [5] = tested on: protein SIC; details: peptides on Immobilon filters probed with 125I-labelled SIC from M1 strain AP1
# Procedure: Slot-binding and SDS-polyacrylamide gel electrophoresis—Peptides were applied to polyvinylidene difluoride (PVDF) membranes (Immobilon, Millipore) using a Milliblot-D system (Millipore). Membranes were blocked in TBS (0.05 M Tris-HCl, pH 7.5, 0.15 M NaCl) containing 3% bovine serum albumin (SA), incubated with ^125I-labelled protein SIC for 3 h, and washed with TBS containing 0.05% Tween-20. Autoradiography was carried out using Kodak x-Omat AR films and regular intesifying screens.
# [6] = tested on: protein SIC; details: SIC applied to plastic wells, peptide added, detected with antibodies
# [7] = tested on: AP1 bacteria
# Procedure: as §1
# [8] = tested on: AP1 bacteria; remark: listed apart in the source
# Procedure: Bacterial growth assay—AP1 bacteria were grown to stationary phase in TH broth. 200 μl of TH was inoculated with 5 μl of the bacterial suspension in 96-well plates (Falcon) at 37° C. At early logarithmic phase various amounts of LL-37 was added and growth was followed by measuring the absorbance at 490 nm (using a BioRad 550 microplate reader). The amount of protein SIC in the growth medium was estimated by ELISA (see below).
# [9] = biological target: LL-37 (human); experiment: cell-based or functional assay
substance,measurement,setting,value
"SIC: streptococcal inhibitor of complement, purified from S. pyogenes strain AP1 of serotype M1","binding of LL-37 (ELISA, FIG. 3B)",[1],showed binding of LL-37 clearly above M1 protein
same,potency in blocking α-defensin and LL-37 relative to the M12 and M55 homologues,"[2]; from inhibition curves FIG. 3C, both peptides at 448 nM",5-10 times
same,blocking of antibacterial activity of α-defensin,"[2]; α-defensin 0.448 μM, AP1 bacteria, 2 h, M1 protein at a maximum of 0.72 μM",blocks
same,blocking of antibacterial activity of LL-37,"[3]; LL-37 0.448 μM, AP1 bacteria, M1 protein at a maximum of 0.72 μM",blocks
same,efficiency in blocking LL-37 relative to α-defensin,"[3]; from inhibition curves, FIG. 2 right panel",about ten
"human antibacterial peptide LLGDFFRKSKEKIGKEFKRIVQRIKDFLRNLVPRTES (Mw 4492), synthesized by Innovagen AB [LL-37]","interaction with M1 protein (ELISA, FIG. 1B)",[4],at background level
same,"interaction with 125I-labelled SIC (slot-binding, FIG. 1A)",[5],interacts
same,"affinity for SIC (ELISA, FIG. 1B)",[6],showed affinity
same,concentration required for 100% killing,"[7]; AP1 washed and resuspended in buffer, no SIC present, 2 h 37° C.",approximately 0.4 μM
same,EC50,"[7]; read-out: concentration of LL-37 required to kill 50% of the bacteria, bacteria washed to remove SIC before addition of LL-37",0.2 µM
same,fold increase of concentration to kill 50% with secreted SIC versus washed bacteria,[8]; 11.1 μM compared to 0.2 μM,more than 50 times
same,EC50,"[8]; read-out: concentration of LL-37 required to kill 50% of the bacteria, AP1 at early logarithmic growth phase, SIC 4-5 μg/ml growth medium",11.1 µM
protein SIC purified from S. pyogenes strain AP1 (serotype M1),"efficiency in blocking LL-37 against blocking α-defensin, from inhibition curves",[9],10 times
same,"fold rise of the LL-37 concentration required to kill 50% of the bacteria, with secreted SIC against washed bacteria",[9],50 times
